{
  "source": "paper PMC8454987",
  "about": "(PLoS Biology, 2021)",
  "molecules": {"B1": {"name": "HHV-8 gH^his/gL^st wild type (mammalian cells) (complex)", "chain 1": "LPTTATTITRSATQLINGRTNLSIELEFNGTSFFLNWQNLLNVITEPALTELWTSAEVAEDLRVTLKKRQSLFFPNKTVVISGDGHRYTCEVPTSSQTYNITKGFNYSALPGHLGGFGINARLVLGDIFASKWSLFARDTPEYRVFYPMNVMAVKFSISIGNNESGVALYGVVSEDFVVVTLHNRSKEANETASHLLFGLPDSLPSLKGHATYDELTFARNAKYALVAILPKDSYQTLLTENYTRIFLNMTESTPLEFTRTIQTRIVSIEARRACAAQEAAPDIFLVLFQMLVAHFLVARGIAEHRFVEVDCVCRQYAELYFLRRISRLCMPTFTTVGYNHTTLGAVAATQIARVSATKLASLPRSSQETVLAMVQLGARDGAVPSSILEGIAMVVEHMYTAYTYVYTLGDTERKLMLDIHTVLTDSCPPKDSGVSEKLLRTYLMFTSMCTNIELGEMIARFSKPDSLNIYRAFSPCFLGLRYDLHPAKLRAEAPQSSALTRTAVARGTSGFAELLHALHLDSLNLIPAINCSKITADKIIATVPLPHVTYIISSEALSNAVVYEVSEIFLKSAMFISAIKPDCSGFNFSQIDRHIPIVYNISTPRRGCPLCDSVIMSYDESDGLQSLMYVTNERVQTNLFLDKSPFFDNNNLHIHYLWLRDNGTVVEIRGMYRRRAAS", "chain 2": "YVALPCCAIQASAASTLPLFFAVHSIHFADPNHCNGVCIAKLRSKTGDITVETCVNGFNLRSFLVAVVRRLGSWASQENLRLLWYLQRSLTAYTVGFNATTADSSIHNVNIIIISVGKAMNRTGSVSGSQTRAKSSSRRAHAGQKGK"}, "B2": {"name": "EphA2 ligand-binding domain (residues 23 to 202), insect cell (domain or fragment, human, UniProt P29317 23-202, looked up)", "chain": "AAQGKEVVLLDFAAAGGELGWLTHPYGKGWDLMQNIMNDMPIYMYSVCNVMSGDQDNWLRTNWVYRGEAERIFIELKFTVRDCNSFPGGASSCKETFNLYYAESDLDYGTNFQKRLFTKIDTIAPDEITVSSDFEARHVKLNVEERSVGPLTRKGFYLAFQDIGACVALLSVRVYYKKCP", "notes": "also called EphA2 LBD; LBD"}},
  "key": {"[1]": {"biological_target": "HHV-8 gH/gL ectodomain complex (insect cell, for crystallization) (human herpesvirus 8 (HHV-8)) (UniProt F5HAK9)", "sequence (F5HAK9 whole entry, looked up, the tested form may be a part, one chain of several)": "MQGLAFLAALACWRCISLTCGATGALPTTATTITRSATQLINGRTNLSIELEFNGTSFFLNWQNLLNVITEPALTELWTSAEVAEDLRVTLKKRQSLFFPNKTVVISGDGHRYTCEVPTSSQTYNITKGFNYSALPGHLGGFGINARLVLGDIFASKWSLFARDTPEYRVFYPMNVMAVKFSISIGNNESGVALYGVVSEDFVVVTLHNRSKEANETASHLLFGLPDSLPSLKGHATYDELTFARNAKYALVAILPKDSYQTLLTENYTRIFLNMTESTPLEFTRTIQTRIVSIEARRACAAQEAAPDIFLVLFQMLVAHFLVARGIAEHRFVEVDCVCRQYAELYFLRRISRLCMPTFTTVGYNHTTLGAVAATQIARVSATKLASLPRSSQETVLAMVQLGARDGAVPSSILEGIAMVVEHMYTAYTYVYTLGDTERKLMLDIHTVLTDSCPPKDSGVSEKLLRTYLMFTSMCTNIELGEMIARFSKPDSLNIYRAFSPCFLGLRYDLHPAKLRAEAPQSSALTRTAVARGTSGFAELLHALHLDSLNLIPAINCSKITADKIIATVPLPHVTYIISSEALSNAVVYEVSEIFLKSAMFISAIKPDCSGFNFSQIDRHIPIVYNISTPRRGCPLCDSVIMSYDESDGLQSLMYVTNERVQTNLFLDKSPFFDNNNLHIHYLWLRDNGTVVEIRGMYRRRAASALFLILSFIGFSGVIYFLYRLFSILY", "assay": "SEC-MALS"}, "[2]": {"biological_target": "T1, EphA2 ectodomain (res. 27 to 534), wild type (human, UniProt P29317 27-534)", "T1 construct": "also called WT EphA2 ectodomain", "T1 sequence (P29317 27-534)": "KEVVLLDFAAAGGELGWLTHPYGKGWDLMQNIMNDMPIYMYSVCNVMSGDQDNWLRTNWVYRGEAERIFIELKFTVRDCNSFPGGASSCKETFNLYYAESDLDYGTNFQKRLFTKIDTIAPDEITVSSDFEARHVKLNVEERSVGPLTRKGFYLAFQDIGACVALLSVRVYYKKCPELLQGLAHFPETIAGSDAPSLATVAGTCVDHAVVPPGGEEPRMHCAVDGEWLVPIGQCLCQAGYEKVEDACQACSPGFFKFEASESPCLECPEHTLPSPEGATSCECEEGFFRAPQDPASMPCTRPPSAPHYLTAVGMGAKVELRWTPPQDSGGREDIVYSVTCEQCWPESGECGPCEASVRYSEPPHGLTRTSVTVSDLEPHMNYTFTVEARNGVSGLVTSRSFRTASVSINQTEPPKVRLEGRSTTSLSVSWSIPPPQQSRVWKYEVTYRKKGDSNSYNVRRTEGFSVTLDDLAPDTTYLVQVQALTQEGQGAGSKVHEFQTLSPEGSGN", "assay": "BLI", "conditions": "both partners purified"}, "[3]": {"biological_target": "EphA2 LBD (res. 27 to 202), wild type (human, UniProt P29317 27-202)", "assay": "BLI", "conditions": "both partners purified"}, "crystal structure": {"biological_target": "the molecule itself", "assay": "crystal structure"}},
  "data": [
    {"molecule": "EphA2 ligand-binding domain (residues 23 to 202), insect cell (from UniProt P29317 23-202) (domain or fragment)", "values": [
      {"measurement": "stoichiometry N", "setting": "[1]", "result": 1}
    ]},
    {"molecule": "EphA2 ectodomain (res. 27 to 534), wild type (from UniProt P29317 27-534) (domain or fragment)", "values": [
      {"measurement": "stoichiometry N", "setting": "[1]", "result": 1}
    ]},
    {"molecule": "B1", "values": [
      {"measurement": "Kd", "setting": "[2]", "result": "< 1", "unit": "nM"},
      {"measurement": "Kd", "setting": "[3]", "result": "< 1", "unit": "nM"}
    ]},
    {"molecule": "B2", "values": [
      {"measurement": "binding result", "setting": "crystal structure", "result": "binds"}
    ]}
  ]
}
